Active and inactive are the calls of the source. The rule behind the calls is not given here.

Data set [1] concerns the target T1, N6-Methyl-AMP deaminase (Homo sapiens) (UniProt Q6DHV7).
T1 sequence (whole entry): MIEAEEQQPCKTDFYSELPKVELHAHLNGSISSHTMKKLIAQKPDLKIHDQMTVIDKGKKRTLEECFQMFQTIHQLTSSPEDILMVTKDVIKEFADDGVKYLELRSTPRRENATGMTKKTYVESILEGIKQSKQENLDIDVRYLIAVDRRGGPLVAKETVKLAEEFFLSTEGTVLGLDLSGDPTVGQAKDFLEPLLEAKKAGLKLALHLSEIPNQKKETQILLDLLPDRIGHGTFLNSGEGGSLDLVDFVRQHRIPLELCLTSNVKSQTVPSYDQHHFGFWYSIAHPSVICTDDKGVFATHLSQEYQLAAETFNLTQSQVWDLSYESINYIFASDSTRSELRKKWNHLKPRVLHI
The data set is described as follows: (§1) Activity of recombinant human ADAL1 expressed in Escherichia coli by UV-spectrophotometry.

Substrate in data set [2]: O=P(O)(O)OC[C@H]1O[C@@H](n2cnc3c(NC4CCCC4)ncnc32)[C@H](O)[C@@H]1O
Described as §1.

Substrate in data set [3]: C[C@@]1(F)[C@H](O)[C@@H](COP(=O)(O)O)O[C@H]1n1cnc2c(N3CCC3)nc(N)nc21
The description is as §1.

Substrate in data set [4]: COc1nc(N)nc2c1ncn2[C@H]1C[C@H](O)[C@@H](COP(=O)(O)O)O1
The description is as §1.

Substrate in data set [5]: CCOc1nc(N)nc2c1ncn2[C@@H]1O[C@H](COP(=O)(O)O)[C@@H](O)[C@@]1(C)F
The description is as §1.

Substrate in data set [6]: Nc1nc(NC2CC2)c2ncn([C@H]3C=C[C@@H](COP(=O)(O)O)C3)c2n1
The description is as §1.

Substrate in data set [7]: COc1nc(N)nc2c1ncn2[C@@H]1O[C@H](COP(=O)(O)O)[C@@H](O)[C@H]1O
Described as §1.

Substrate in data set [8]: CC(C)Oc1nc(N)nc2c1ncn2[C@@H]1O[C@H](COP(=O)(O)O)[C@@H](O)[C@@]1(C)F
Described as §1.

Substrate in data set [9]: COc1nc(N)nc2c1ncn2[C@@H]1O[C@H](COP(=O)(O)O)[C@@H](O)[C@@]1(C)F
Described as §1.

Substrate in data set [10]: Nc1ncnc2c1ncn2[C@@H]1O[C@H](COP(=O)(O)O)[C@@H](O)[C@H]1O
Described as §1.

Substrate in data set [11]: Nc1nc(Cl)c2ncn([C@@H]3O[C@H](COP(=O)(O)O)[C@@H](O)[C@H]3O)c2n1
The description is as §1.

Substrate in data set [12]: COc1nc(N)nc2c1ncn2[C@@H]1O[C@H](COP(=O)(O)O)[C@@H](O)[C@@]1(C)O
Described as §1.

Substrate in data set [13]: CNc1ncnc2c1ncn2[C@@H]1O[C@H](COP(=O)(O)O)[C@@H](O)[C@H]1O
The description is as §1.

Substrate in data set [14]: O=P(O)(O)OC[C@H]1O[C@@H](n2cnc3c(NC4CCCC4)ncnc32)[C@H](O)[C@@H]1O
The data set is described as follows: (§2) Kcat/Km ratio of recombinant human ADAL1 expressed in Escherichia coli.

Substrate in data set [15]: C[C@@]1(F)[C@H](O)[C@@H](COP(=O)(O)O)O[C@H]1n1cnc2c(N3CCC3)nc(N)nc21
The description is as §2.

Substrate in data set [16]: COc1nc(N)nc2c1ncn2[C@H]1C[C@H](O)[C@@H](COP(=O)(O)O)O1
Described as §2.

Substrate in data set [17]: CCOc1nc(N)nc2c1ncn2[C@@H]1O[C@H](COP(=O)(O)O)[C@@H](O)[C@@]1(C)F
Described as §2.

Substrate in data set [18]: Nc1nc(NC2CC2)c2ncn([C@H]3C=C[C@@H](COP(=O)(O)O)C3)c2n1
Described as §2.

Substrate in data set [19]: COc1nc(N)nc2c1ncn2[C@@H]1O[C@H](COP(=O)(O)O)[C@@H](O)[C@H]1O
The data set is described as §2.

Substrate in data set [20]: CC(C)Oc1nc(N)nc2c1ncn2[C@@H]1O[C@H](COP(=O)(O)O)[C@@H](O)[C@@]1(C)F
The data set is described as §2.

Substrate in data set [21]: COc1nc(N)nc2c1ncn2[C@@H]1O[C@H](COP(=O)(O)O)[C@@H](O)[C@@]1(C)F
The data set is described as §2.

Substrate in data set [22]: Nc1ncnc2c1ncn2[C@@H]1O[C@H](COP(=O)(O)O)[C@@H](O)[C@H]1O
The data set is described as §2.

Substrate in data set [23]: Nc1nc(Cl)c2ncn([C@@H]3O[C@H](COP(=O)(O)O)[C@@H](O)[C@H]3O)c2n1
The description is as §2.

Substrate in data set [24]: COc1nc(N)nc2c1ncn2[C@@H]1O[C@H](COP(=O)(O)O)[C@@H](O)[C@@]1(C)O
Described as §2.

Substrate in data set [25]: CNc1ncnc2c1ncn2[C@@H]1O[C@H](COP(=O)(O)O)[C@@H](O)[C@H]1O
The data set is described as §2.

For the molecule `Nc1ncnc2c1ncn2CCOCP(=O)(O)O`, the result in data set [1] was inactive.
The same measure, in the same setting: next, `COc1nc(N)nc2c1ncn2[C@@H]1O[C@H](COP(=O)(O)N[C@@H](C)C(=O)O)[C@@H](O)[C@@]1(C)F`: “inactive”; `CN1N=C(N)c2cn([C@@H]3O[C@H](COP(=O)(O)O)[C@@H](O)[C@H]3O)c3ncnc1c23`: “inactive”.
For the molecule `COc1nc(N)nc2c1ncn2[C@@H]1O[C@H](CO)[C@@H](O)[C@@]1(C)F`, the outcome in [1] was inactive.
Regarding `CNc1ncnc2c1ncn2[C@@H]1O[C@H](CO)[C@@H](O)[C@H]1O`, the outcome in data set [1] was inactive.
Still for that read-out and setting: next, `CSc1nc(N)nc2c1ncn2[C@@H]1O[C@H](COP(=O)(O)O)[C@@H](O)[C@H]1O`: “inactive”; `Nc1nc(NC2CC2)c2ncn([C@H]3C=C[C@@H](CO)C3)c2n1`: “inactive”; `O=C(O)CC(Nc1ncnc2c1ncn2[C@@H]1O[C@H](COP(=O)(O)O)[C@@H](O)[C@H]1O)C(=O)O` (stereo not given in full): “inactive”.
As for `C[C@@]1(F)[C@H](O)[C@@H](COP(=O)(O)O)O[C@H]1n1ccc(N)nc1=O`, in [1], the outcome was inactive.
The same measure, in the same setting: next, `Nc1nc(N)c2ncn([C@@H]3O[C@H](CO)[C@@H](O)[C@H]3O)c2n1`: “inactive”; `CCOc1nc(N)nc2c1ncn2[C@@H]1O[C@@H]2COP(=O)(O)O[C@H]2[C@@]1(C)F`: “inactive”; `Nc1nc(=O)[nH]c2c1ncn2[C@@H]1O[C@H](CO)[C@@H](O)[C@H]1O`: “inactive”.
Same read-out and setting: next, `Nc1ncnc2c1ncn2[C@@H]1O[C@H](COP(N)(=O)O)[C@@H](O)[C@H]1O`: “inactive”.
In the case of `C[C@H](Cn1cnc2c(N)ncnc21)OCP(=O)(O)O`, in data set [1], the outcome was inactive.
Still for that read-out and setting: next, `Nc1ccn([C@H]2C[C@H](O)[C@@H](COP(=O)(O)O)O2)c(=O)n1`: “inactive”; `CCOc1nc(N)nc2c1ncn2[C@@H]1O[C@H](CO)[C@@H](O)[C@@]1(C)F`: “inactive”; `Nc1ncnc2c1ncn2[C@@H]1O[C@H](CO)[C@@H](O)[C@H]1O`: “inactive”.
On the same count and under the same terms, next, `O=P(O)(O)OC[C@H]1O[C@@H](n2cnc3c2ncn2ccnc32)[C@H](O)[C@@H]1O`: “inactive”; `COc1nc(N)nc2c1ncn2[C@@H]1O[C@H](CO)[C@@H](O)[C@H]1O`: “inactive”; `COc1nc(N)nc2c1ncn2[C@@H]1O[C@H](COP(=O)(O)OP(=O)(O)O)[C@@H](O)[C@@]1(C)F`: “inactive”.
For the molecule `CCOc1nc(N)nc2c1ncn2[C@@H]1O[C@@H]2CO[P@](=O)(OC(C)C)O[C@H]2[C@@]1(C)F`, in data set [1], the outcome was inactive.
On the same count and under the same terms, next, `Nc1nc(=S)c2ncn([C@@H]3O[C@H](COP(=O)(O)O)[C@@H](O)[C@H]3O)c2[nH]1`: “inactive”; `CCOc1nc(N)nc2c1ncn2[C@@H]1O[C@H](COP(=O)(O)OP(=O)(O)OP(=O)(O)O)[C@@H](O)[C@@]1(C)F`: “inactive”.
On the same count and under the same terms, next, `COc1nc(N)nc2c1ncn2[C@@H]1O[C@H](COP(=O)(N[C@@H](C)C(=O)OC(C)C)Oc2ccccc2)[C@@H](O)[C@@]1(C)F` (stereo not given in full): “inactive”.

B1: N6-Methyl-AMP deaminase (Homo sapiens), Q6DHV7 (protein)
chain: T1 sequence (whole entry)
Take B1: the Km (commonly the substrate concentration at which the rate is half of its maximum) in data set [2] turned out to be 14.3 µM; in [3], 8.63 µM; in data set [4], 6 µM; in data set [5], 25.1 µM; in data set [6], 7.37 µM; in data set [7] it was 5.2 µM. Moreover, the Km in data set [8] amounted to 25.9 µM; in data set [9] it was 8.96 µM; in data set [10] it was 32.8 µM; in data set [11], 16.3 µM; in [12] it was 10.7 µM; in [13] it was 12.5 µM. Also, the turnover number (kcat) (as a rule, the number of substrate molecules converted per active site and unit of time at saturation) in [2] worked out at 4.24 s⁻¹; in data set [3], 1.55 s⁻¹; in data set [4], 2.92 s⁻¹; in [5], 8.14 s⁻¹; in [6] it was 1.63 s⁻¹; in data set [7] it was 2.33 s⁻¹. In addition, the kcat was determined as 7.2 s⁻¹ in [8]; 5.85 s⁻¹ in data set [9]; 0.055 s⁻¹ in data set [10]; 3.64 s⁻¹ in data set [11]; 2.36 s⁻¹ in data set [12]; 1.58 s⁻¹ in data set [13]. The kcat/Km (as a rule, the turnover number divided by the Michaelis constant) in data set [14] is 300000 M⁻¹ s⁻¹; in data set [15], 180000 M⁻¹ s⁻¹; in [16], 490000 M⁻¹ s⁻¹; in [17] it was 320000 M⁻¹ s⁻¹; in data set [18] it was 220000 M⁻¹ s⁻¹; in data set [19], 450000 M⁻¹ s⁻¹. Further, the kcat/Km in data set [20] came out at 280000 M⁻¹ s⁻¹; in [21], 650000 M⁻¹ s⁻¹; in data set [22], 1700 M⁻¹ s⁻¹; in data set [23], 223000 M⁻¹ s⁻¹; in data set [24], 220000 M⁻¹ s⁻¹; in [25] it was 130000 M⁻¹ s⁻¹.

These data come from ChEMBL document CHEMBL1811779, “Adenosine deaminase-like protein 1 (ADAL1): characterization and substrate specificity in the hydrolysis of N(6)- or O(6)-substituted purine or 2-aminopurine nucleoside monophosphates” (J Med Chem, 2011).
